From patent publication US20240132578A1

Key:
Experiment in all cases: cell-based or functional assay
[1] = target: HIV-1 Env of isolate 93MW959 (subtype C) (HIV-1)
[2] = target: HIV-1 Env of isolate 97ZA012 (subtype C) (HIV-1)
[3] = target: HIV-1 Env of isolate 98IN022 (subtype C) (HIV-1)
[4] = target: HIV-1 Env of isolate MGRM-C-001 (subtype C) (HIV-1)
[5] = target: HIV-1 Env of isolate MGRM-C-002 (subtype C) (HIV-1)
[6] = target: HIV-1 Env of isolate MGRM-C-004 (subtype C) (HIV-1)
[7] = target: HIV-1 Env of isolate MGRM-C-005 (subtype C) (HIV-1)
[8] = target: HIV-1 Env of isolate MGRM-C-006 (subtype C) (HIV-1)
[9] = target: HIV-1 Env of isolate MGRM-C-007 (subtype C) (HIV-1)
[10] = target: HIV-1 Env of isolate MGRM-C-008 (subtype C) (HIV-1)
[11] = target: HIV-1 Env of isolate MGRM-C-009 (subtype C) (HIV-1)
[12] = target: HIV-1 Env of isolate MGRM-C-010 (subtype C) (HIV-1)
[13] = target: HIV-1 Env of isolate MGRM-C-012 (subtype C) (HIV-1)
[14] = target: HIV-1 Env of isolate MGRM-C-013 (subtype C) (HIV-1)
[15] = target: HIV-1 Env of isolate MGRM-C-014 (subtype C) (HIV-1)
[16] = target: HIV-1 Env of isolate MGRM-C-015 (subtype C) (HIV-1)
[17] = target: HIV-1 Env of isolate MGRM-C-017 (subtype C) (HIV-1)
[18] = target: HIV-1 Env of isolate MGRM-C-019 (subtype C) (HIV-1)
[19] = target: HIV-1 Env of isolate MGRM-C-020 (subtype C) (HIV-1)
[20] = target: HIV-1 Env of isolate MGRM-C-022 (subtype C) (HIV-1)
[21] = target: HIV-1 Env of isolate MGRM-C-023 (subtype C) (HIV-1)
[22] = target: HIV-1 Env of isolate MGRM-C-024 (subtype C) (HIV-1)
[23] = target: HIV-1 Env of isolate MGRM-C-025 (subtype C) (HIV-1)
[24] = target: HIV-1 Env of isolate MGRM-C-026 (subtype C) (HIV-1)
[25] = target: HIV-1 Env of isolate MGRM-C-027 (subtype C) (HIV-1)
[26] = target: HIV-1 Env of isolate MGRM-C-028 (subtype C) (HIV-1)
[27] = target: HIV-1 Env of isolate MGRM-G-001 (subtype G), on pseudovirus (HIV-1)
[28] = target: HIV-1 Env of isolate MGRM-G-004 (subtype G), on pseudovirus (HIV-1)
[29] = target: HIV-1 Env of isolate MGRM-G-006 (subtype G), on pseudovirus (HIV-1)
[30] = target: HIV-1 Env of isolate MGRM-G-009 (subtype G), on pseudovirus (HIV-1)
[31] = target: HIV-1 Env of isolate MGRM-G-011 (subtype G), on pseudovirus (HIV-1)
[32] = target: HIV-1 Env of isolate MGRM-G-013 (subtype G), on pseudovirus (HIV-1)
[33] = target: HIV-1 Env of isolate MGRM-G-014 (subtype G), on pseudovirus (HIV-1)
[34] = target: HIV-1 Env of isolate MGRM-G-015 (subtype G), on pseudovirus (HIV-1)
[35] = target: HIV-1 Env of isolate MGRM-G-016 (subtype G), on pseudovirus (HIV-1)
[36] = target: HIV-1 Env of isolate MGRM-G-017 (subtype G), on pseudovirus (HIV-1)
[37] = target: HIV-1 Env of isolate MGRM-G-019 (subtype G), on pseudovirus (HIV-1)
[38] = target: HIV-1 Env of isolate MGRM-G-024 (subtype G), on pseudovirus (HIV-1)
[39] = target: HIV-1 Env of isolate MGRM-G-025 (subtype G), on pseudovirus (HIV-1)
[40] = target: HIV-1 Env of isolate MGRM-G-027 (subtype G), on pseudovirus (HIV-1)
[41] = target: HIV-1 Env of isolate MGRM-G-028 (subtype G), on pseudovirus (HIV-1)
[42] = target: HIV-1 JR-CSF Env D477A (HIV-1 JR-CSF) (UniProt P20871)
[43] = target: HIV-1 JR-CSF Env N478A (HIV-1 JR-CSF) (UniProt P20871)
[44] = target: aMLV envelope, on pseudovirus (negative control)
[45] = target: HIV-1 JR-CSF Env R476A (HIV-1 JR-CSF) (UniProt P20871)

B1: PGT-125 (antibody, V domains shown)
VH: QSQLQESGPRLVEASETLSLTCNVSGESTGACTYFWGWVRQAPGKGLEWIGSLSHCQSFWGSGWTFHNPSLKSRLTISLDTPKNQVFLKLTSLTAADTATYYCARFDGEVLVYNHWPKPAWVDLWGRGIPVTVSS
VL: QSALTQPPSASGSPGQSITISCNGTATNFVSWYQQFPDKAPKLIIFGVDKRPPGVPDRFSGSRSGTTASLTVSRLQTDDEAVYYCGSLVGNWDVIFGGGTTLTVL
IC50 (µg/mL), pseudovirus neutralization [1]: 37.5 µg/mL
IC50 (µg/mL), pseudovirus neutralization [2]: 2.46 µg/mL
IC50 (µg/mL), pseudovirus neutralization [3]: 22.1 µg/mL
IC50 (µg/mL), pseudovirus neutralization [4]: > 50 µg/mL
IC50 (µg/mL), pseudovirus neutralization [5]: 0.008 µg/mL
IC50 (µg/mL), pseudovirus neutralization [6]: 1.82 µg/mL
IC50 (µg/mL), pseudovirus neutralization [7]: 2.09 µg/mL
IC50 (µg/mL), pseudovirus neutralization [8]: 0.015 µg/mL
IC50 (µg/mL), pseudovirus neutralization [9]: > 50 µg/mL
IC50 (µg/mL), pseudovirus neutralization [10]: > 50 µg/mL
IC50 (µg/mL), pseudovirus neutralization [11]: > 50 µg/mL
IC50 (µg/mL), pseudovirus neutralization [12]: > 50 µg/mL
IC50 (µg/mL), pseudovirus neutralization [13]: > 50 µg/mL
IC50 (µg/mL), pseudovirus neutralization [14]: > 50 µg/mL
IC50 (µg/mL), pseudovirus neutralization [15]: > 50 µg/mL
IC50 (µg/mL), pseudovirus neutralization [16]: > 50 µg/mL
IC50 (µg/mL), pseudovirus neutralization [17]: 2.36 µg/mL
IC50 (µg/mL), pseudovirus neutralization [18]: 0.13 µg/mL
IC50 (µg/mL), pseudovirus neutralization [19]: > 50 µg/mL
IC50 (µg/mL), pseudovirus neutralization [20]: 1.23 µg/mL
IC50 (µg/mL), pseudovirus neutralization [21]: 1.31 µg/mL
IC50 (µg/mL), pseudovirus neutralization [22]: > 50 µg/mL
IC50 (µg/mL), pseudovirus neutralization [23]: 42.5 µg/mL
IC50 (µg/mL), pseudovirus neutralization [24]: 0.005 µg/mL
IC50 (µg/mL), pseudovirus neutralization [25]: > 50 µg/mL
IC50 (µg/mL), pseudovirus neutralization [26]: 14 µg/mL
IC50 (µg/mL), neutralization of pseudovirus [27]: 0.033 µg/mL
IC50 (µg/mL), neutralization of pseudovirus [28]: > 50 µg/mL
IC50 (µg/mL), neutralization of pseudovirus [29]: > 50 µg/mL
IC50 (µg/mL), neutralization of pseudovirus [30]: > 50 µg/mL
IC50 (µg/mL), neutralization of pseudovirus [31]: > 50 µg/mL
IC50 (µg/mL), neutralization of pseudovirus [32]: > 50 µg/mL
IC50 (µg/mL), neutralization of pseudovirus [33]: 0.007 µg/mL
IC50 (µg/mL), neutralization of pseudovirus [34]: > 50 µg/mL
IC50 (µg/mL), neutralization of pseudovirus [35]: > 50 µg/mL
IC50 (µg/mL), neutralization of pseudovirus [36]: > 50 µg/mL
IC50 (µg/mL), neutralization of pseudovirus [37]: > 50 µg/mL
IC50 (µg/mL), neutralization of pseudovirus [38]: > 50 µg/mL
IC50 (µg/mL), neutralization of pseudovirus [39]: > 50 µg/mL
IC50 (µg/mL), neutralization of pseudovirus [40]: 34.4 µg/mL
IC50 (µg/mL), neutralization of pseudovirus [41]: 0.012 µg/mL
Fold IC50 increase relative to wild-type [42]: 3.4 fold
Fold IC50 increase relative to wild-type [43]: 1.5 fold
IC50 (µg/mL), neutralization of pseudovirus [44]: > 50 µg/mL

B2: PGT-123 (antibody, V domains shown)
VH: QLHLQESGPGLVKPPETLSLTCSVSGASINDAYWSWIRQSPGKRPEWVGYVHHSGDTNYNPSLKRRVTFSLDTAKNEVSLKLVDLTAADSATYFCARALHGKRIYGIVALGELFTYFYMDVWGKGTAVTVSS
VL: SSMSVSPGETAKISCGKESIGSRAVQWYQQKPGQPPSLIIYNNQDRPAGVPERFSASPDFRPGTTATLTITNVDAEDEADYYCHIYDARGGTNWVFDRGTTLTVL
IC50 (µg/mL), pseudovirus neutralization [1]: 0.011 µg/mL
IC50 (µg/mL), pseudovirus neutralization [2]: 0.002 µg/mL
IC50 (µg/mL), pseudovirus neutralization [3]: 0.011 µg/mL
IC50 (µg/mL), pseudovirus neutralization [4]: 42.4 µg/mL
IC50 (µg/mL), pseudovirus neutralization [5]: 0.01 µg/mL
IC50 (µg/mL), pseudovirus neutralization [6]: 0.009 µg/mL
IC50 (µg/mL), pseudovirus neutralization [7]: 0.012 µg/mL
IC50 (µg/mL), pseudovirus neutralization [8]: 0.021 µg/mL
IC50 (µg/mL), pseudovirus neutralization [9]: 0.547 µg/mL
IC50 (µg/mL), pseudovirus neutralization [10]: 0.011 µg/mL
IC50 (µg/mL), pseudovirus neutralization [11]: > 50 µg/mL
IC50 (µg/mL), pseudovirus neutralization [12]: > 50 µg/mL
IC50 (µg/mL), pseudovirus neutralization [13]: 0.605 µg/mL
IC50 (µg/mL), pseudovirus neutralization [14]: 14.9 µg/mL
IC50 (µg/mL), pseudovirus neutralization [15]: 1 µg/mL
IC50 (µg/mL), pseudovirus neutralization [16]: 13.1 µg/mL
IC50 (µg/mL), pseudovirus neutralization [17]: 0.01 µg/mL
IC50 (µg/mL), pseudovirus neutralization [18]: > 50 µg/mL
IC50 (µg/mL), pseudovirus neutralization [19]: > 50 µg/mL
IC50 (µg/mL), pseudovirus neutralization [20]: 0.01 µg/mL
IC50 (µg/mL), pseudovirus neutralization [21]: 0.011 µg/mL
IC50 (µg/mL), pseudovirus neutralization [22]: 0.195 µg/mL
IC50 (µg/mL), pseudovirus neutralization [23]: 13.3 µg/mL
IC50 (µg/mL), pseudovirus neutralization [24]: 0.001 µg/mL
IC50 (µg/mL), pseudovirus neutralization [25]: 0.02 µg/mL
IC50 (µg/mL), pseudovirus neutralization [26]: 0.402 µg/mL
IC50 (µg/mL), neutralization of pseudovirus [27]: 0.009 µg/mL
IC50 (µg/mL), neutralization of pseudovirus [28]: 0.181 µg/mL
IC50 (µg/mL), neutralization of pseudovirus [29]: > 50 µg/mL
IC50 (µg/mL), neutralization of pseudovirus [30]: 33.5 µg/mL
IC50 (µg/mL), neutralization of pseudovirus [31]: 14.9 µg/mL
IC50 (µg/mL), neutralization of pseudovirus [32]: 3.97 µg/mL
IC50 (µg/mL), neutralization of pseudovirus [33]: 0.005 µg/mL
IC50 (µg/mL), neutralization of pseudovirus [34]: > 50 µg/mL
IC50 (µg/mL), neutralization of pseudovirus [35]: > 50 µg/mL
IC50 (µg/mL), neutralization of pseudovirus [36]: 0.026 µg/mL
IC50 (µg/mL), neutralization of pseudovirus [37]: 0.008 µg/mL
IC50 (µg/mL), neutralization of pseudovirus [38]: 0.032 µg/mL
IC50 (µg/mL), neutralization of pseudovirus [39]: 0.046 µg/mL
IC50 (µg/mL), neutralization of pseudovirus [40]: 0.182 µg/mL
IC50 (µg/mL), neutralization of pseudovirus [41]: 0.008 µg/mL
Fold IC50 increase relative to wild-type [42]: 2.3 fold
Fold IC50 increase relative to wild-type [45]: 2 fold
IC50 (µg/mL), neutralization of pseudovirus [44]: > 50 µg/mL
